Assay results taken from the supplement of paper PMC12042874.
± gives the uncertainty stated by the source.

Assay: amyloid nucleation score (Sup35N fusion, yeast selection) (log enrichment); library NNK1; higher = more nucleation; inactive = no reads after selection
How it was run: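 On medium lacking adenine and uracil, psi-negative yeast expressing peptides of 20 random codons fused to Sup35N were grown 7 days at 30°C after a 24-hour induction with 100 μM copper sulfate. Illumina sequencing of input and output plasmid inserts gave the reads, and sequences under 100 input reads were excluded. The nucleation score is the DiMSum log enrichment of output over input reads, centred on the mode score of non-aggregating sequences.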

First: FVLLNLPLVKRVCRIVGYWG
Second: YNTCECFSFLTCKWLNKMDG
The amyloid nucleation score of the first is lower: -0.327 ± 0.51 for the first, 2.79 ± 0.16 for the second.

MKSCASDPVCCPQTTRSTSL and VTDEFCPVLSGG are within error of each other in amyloid nucleation score: 0.742 ± 0.49 for the first, 0.317 ± 0.52 for the second.

CMLSCFSDRAWIMQRSVCAC and RDDLNTTWFLGRSTLGLMLW are within error of each other in amyloid nucleation score: 0.879 ± 0.65 for the first, 0.168 ± 0.6 for the second.

SANRTHNWY and MVVVVRTVLQVMRGR are within error of each other in amyloid nucleation score: -0.451 ± 0.44 for the first, 0.189 ± 0.76 for the second.

FWPFHDDLDVVSAFCYIRIL and ISKSFWTRGECCRK are within error of each other in amyloid nucleation score: -0.707 ± 0.82 for the first, 0.368 ± 0.39 for the second.

AIDIYGYLRFPCWLRVLFT and TPKLIAV are within error of each other in amyloid nucleation score: -1.06 ± 0.45 for the first, -2.05 ± 1.9 for the second.

GLACYM and QVNLANFGRRKCKRKGR are within error of each other in amyloid nucleation score: 0.413 ± 0.4 for the first, 0.185 ± 0.44 for the second.

TGRYISDYCVIKAYVYSICD and SRPQLDKTLFGLVA are within error of each other in amyloid nucleation score: -0.135 ± 0.39 for the first, 0.771 ± 0.62 for the second.

FGDSFLSYGHMLIFFWYMTM and GRMTVRNCGQDPLVFRTYQG are within error of each other in amyloid nucleation score: 1.21 ± 0.64 for the first, -1.13 ± 2.7 for the second.

YFFRKLSGSWASSFLVAPMV and VFSKLDTLFTVSMTLRPMWP are within error of each other in amyloid nucleation score: 0.444 ± 0.59 for the first, 0.566 ± 0.79 for the second.

RGEKLQEVMSVGYWIGFFNN and RMVNKTECTRRRIITTSNWI are within error of each other in amyloid nucleation score: 0.907 ± 0.27 for the first, 0.869 ± 0.81 for the second.

HVHWPLLNNAYAS and VRARVLSKTIMMTTYERHLV are within error of each other in amyloid nucleation score: 0.867 ± 0.93 for the first, -0.691 ± 1.7 for the second.

KVRMLNMVYKNLSDRD and MLNINVTYGFGDLREWNRIF are within error of each other in amyloid nucleation score: 0.884 ± 0.56 for the first, 1.16 ± 0.13 for the second.

DLIMFD and LRLPSRAFEGFRREAAWGST are within error of each other in amyloid nucleation score: -0.029 ± 0.73 for the first, 1.23 ± 0.76 for the second.

First: VEFGSHVFYLKGRSDKAKYL
Second: DGQPLLMGEHYSLGITLM
The amyloid nucleation score of the first is lower: -0.283 ± 0.45 for the first, 1.1 ± 0.81 for the second.

KRVLNLFGEESFAGMIWIDY and TPRYVLLVC are within error of each other in amyloid nucleation score: -0.125 ± 0.97 for the first, -0.983 ± 2.4 for the second.

RLTVTADWHHHWRLVRQFKA and VYASGWAQISVTGGTWLRGD are within error of each other in amyloid nucleation score: -0.044 ± 0.71 for the first, 0.131 ± 0.42 for the second.

ICVRMSKFGCWTFSVKRGWQ and NYTVRENGSK are within error of each other in amyloid nucleation score: 0.335 ± 0.77 for the first, -0.127 ± 0.27 for the second.

LRYFDFCISRLDSEGN and NMRYHGISCRYRKYYFRWLD are within error of each other in amyloid nucleation score: 0.264 ± 0.64 for the first, -0.261 ± 0.31 for the second.

Going from RLVSRPRSLLQCYWGLVC to SLDYKFSFLSQ, the amyloid nucleation score rises from 0.392 ± 1.4 to 6.963 ± 0.045.

Going from VHYWLVNSSTKRGRPFASAF to RIPASFRITYVDSIKCKPF, the amyloid nucleation score rises from -0.231 ± 0.36 to 4.15 ± 0.088.

AGSLWFIWGLLSALN and VFALMRISSNSMSKCQFVCD are within error of each other in amyloid nucleation score: -0.893 ± 0.92 for the first, -0.187 ± 0.39 for the second.

Going from DRAWTGVWDDESPTT to NTVIVPHLIILLDYSKVWAE, the amyloid nucleation score rises from -0.383 ± 1.7 to 3.28 ± 0.069.

CPRHVALGHLNYLGQDFDLK and VLYGADDVLVRVSTCVYMGG are within error of each other in amyloid nucleation score: 0.326 ± 1.2 for the first, -0.136 ± 0.25 for the second.

Compared with RGNPNTVGIITWCDDVFFFQ, RLRTNVLSNRVGDPIMTSHV is lower in amyloid nucleation score: 3.07 ± 0.25 for the first, 0.158 ± 0.54 for the second.

QNFDHTIHRISVVVPGA and DVAPLGCGEPCYGSY are within error of each other in amyloid nucleation score: -0.099 ± 1.6 for the first, -1.22 ± 1.4 for the second.

RYYNFFMGLTWG and MSDLLSVVN are within error of each other in amyloid nucleation score: -0.395 ± 0.48 for the first, 0.142 ± 0.81 for the second.

GCTRNCSKCKGMHSQRHPYP and SIFSSNCNL are within error of each other in amyloid nucleation score: -0.837 ± 2.4 for the first, -0.36 ± 0.24 for the second.

Going from FIYVDSGDKNGYCACDKFLP to FDSQDSISFGDGTFKSVWPM, the amyloid nucleation score falls from 6.059 ± 0.052 to 0.177 ± 0.31.

PFLYIDSF and KSLMRTTMSCQSDYEDQKDV are within error of each other in amyloid nucleation score: -1.2 ± 1.9 for the first, 0.883 ± 0.78 for the second.

First: VLRKTFGCFETMV
Second: MYGCFSGGSVFSSYAALFVI
The amyloid nucleation score of the first is higher: 3.92 ± 0.073 for the first, -0.766 ± 0.41 for the second.

First: VVESTGFIWAGEWVLWIEFS
Second: VLMLCCMGSTRVCMTYMPDN
The amyloid nucleation score of the first is lower: -0.356 ± 0.82 for the first, 6.885 ± 0.064 for the second.

Compared with SLITVSHMPWGCT, TNSCNLELAVICMSSYWG is higher in amyloid nucleation score: 0.342 ± 0.36 for the first, 4.71 ± 0.069 for the second.

First: GVGVCYFSC
Second: RCASALVSGVTSVSLRTVQD
The amyloid nucleation score of the first is higher: 2.2 ± 0.22 for the first, 0.83 ± 0.73 for the second.

WYSTFGAMKKLGTYPCSGVN and ESIFLRRTVALHRKVCLIDW are within error of each other in amyloid nucleation score: -0.46 ± 1 for the first, 0.783 ± 0.36 for the second.

CWLMGMSGPPFDRVWGVVIR and SGAPRSCFNHSVFRMRASCL are within error of each other in amyloid nucleation score: -0.086 ± 1.2 for the first, 0.114 ± 1.4 for the second.

LWVVPLE and RNSMGLLAVEDVC are within error of each other in amyloid nucleation score: -0.643 ± 1.9 for the first, -1.16 ± 0.61 for the second.

GFVGYNCLCFCKSVA and HSNMVNS are within error of each other in amyloid nucleation score: -1.05 ± 0.84 for the first, -0.73 ± 0.33 for the second.

Going from LRGRLYASGRVEFYHKQSLF to VETIRQINVHVSGVDIHFWD, the amyloid nucleation score rises from 0.526 ± 0.83 to 6.872 ± 0.045.

With HGAVLCC the amyloid nucleation score was 0.305 ± 1.4.

In the case of KLHNILLWNCLVFLCVMYVW, the amyloid nucleation score is reported as “inactive”.
With LVVSWKLVPSSSTYCGTMSL the amyloid nucleation score was “inactive”.
With SIKFIRTYWWITNSVDKFV the amyloid nucleation score was “inactive”.
In the case of FTFFRRW, the amyloid nucleation score is reported as “inactive”.
With CRACRLRVIFNELMVGWVMF the amyloid nucleation score was “inactive”.
For EVFDDCGGLMNYM, the amyloid nucleation score was “inactive”.
With FYYGSVSLSWF the amyloid nucleation score was “inactive”.
For ICLESNRFI, the amyloid nucleation score was “inactive”.
